The nanobody polyreactivity screen of Harvey et al. (2022)

experiment: yeast display, Sf9 membrane polyspecificity reagent, FACS + sequencing; frameworks hold sequencing errors
In short: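 Galactose induction of a Saccharomyces cerevisiae BJ5465 synthetic nanobody display library ran 36–48 hours. The cells were then stained for 1 hour at 4 °C with 10% biotinylated, detergent-solubilized Sf9 membrane reagent, pulled down on streptavidin microbeads and FACS-sorted into low and high (top ~1%) gates on expression and reagent-binding fluorescence. Labels for polyreactivity follow the gate of origin.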

| Sequence | polyreactivity (PSR sort gate) |
| --- | --- |
| QVQLVESGGGLVQAGGSLRLSCAASGRIFRYYAMGWYRQAPGKERELVAAINTSTGSTYYADSVKGRFTISRDNAKNTVYLQMNSLKPEDTAVYYCATGWHYYRSLRGGLAWPGGYWGQGTQVTVSS | high polyreactivity |
| QVQLVESGGGLVQAGGSLRLSCAASGRIFRYYAMGWYRQAPGKERELVAAIRYRSGGTYYADSVKGRFTISRDNAKNTVYLQMNCLKPEDTAVYYCNADKRLRGHGYDYWGQGTQVTVSS | high polyreactivity |
| QVQLVESGGGLVQAGGSLRLSCAASGRIFRYYAMGWYRQAPGKERELVAAISSGGSTNYADSVKGRFTISRDNAKNTVYIQMNSLKPEDTPVYYCAAEWYSYGARSSYGGSRNDYWGQGTQVTVSS | low polyreactivity |
| QVQLVESGGGLVQAGGSLRLSCAASGRIFRYYAMGWYRQAPGKERELVAAISWSGSSTYYADSVKGRFTISRDNAKNTVFLQMNSLKPEDTAVYYCDALILSKSEYYWGQGTQVSVSS | high polyreactivity |
| QVQLVESGGGLVQAGGSLRLSCAASGRIFRYYAMGWYRQAPGKERELVATITASSGSTYYADSVKGRFTISRDNAKNTVYLQMNSLKPEDTAVYYCAAGFVYRPGSFIRFDYWGQGTQVTVSS | high polyreactivity |
| QVQLVESGGGLVQAGGSLRLSCAASGRIFRYYAMGWYRQAPGKERELVATITSSGGSTFYADSVKGRFTISRDNAKNTVYLQMNSLKPEDTAVYYCAASRASRYFPYDYWGQGTQVTVSS | high polyreactivity |
| QVQLVESGGGLVQAGGSLRLSCAASGRIFRYYAMGWYRQATGKERELVASISSGGSTNYADSVKGRCTISRDNAKNTVYLQMNSLKPEDTAVYYCNAVLCFRAVYEYDYWGQGTQVTVSS | high polyreactivity |
| QVQLVESGGGLVQAGGSLRLSCAASGRIFRYYARGWYRQAPGKEMELVAAISGSGGSTYYADSVKGRFTISRDNAQKTVYLQIHCLKPEDTAVYSCNARYRIPSGEGDHWGQGTQVTVSS | low polyreactivity |
| QVQLVESGGGLVQAGGSLRLSCAASGRIFRYYVMGWYRQAPGKETELVAAISRSGGTTYYADSVKGRFTISRDNAKNTVYLQMNSLKPEDTAVYYCAAVYGRDPGDYWGQGTQVTVSS | high polyreactivity |
| QVQLVESGGGLVQAGGSLRLSCAASGRIFSAYAMGGYRQAPGKGRELVAAISYSGGSTYYADSVKGRFTISRDNAKNTVYLQMNSLKPEDTAVYYCAASGPRWWRFGYWGQGTQVTVSS | low polyreactivity |
| QVQLVESGGGLVQAGGSLRLSCAASGRIFSAYAMGWYRQAPGKERELVAAISKRGGRTYYADSVKGRFTISRDNAKNTVYLQMNSLKPEDTAVYYCNKRYHDGHELDYWGQGTQVTVSS | high polyreactivity |
| QVQLVESGGGLVQAGGSLRLSCAASGRIFSAYAMGWYRQAPGKERELVAAITSVGSTKYADSVKGLFTISRDNAKNTVYLQMNSLKPEDTAVYYCAAEYTRSFYIYYRFGYWGQGTQVTVSS | high polyreactivity |
| QVQLVESGGGLVQAGGSLRLSCAASGRIFSAYAMGWYRQAPGKERELVAVISRRGGRTYYADSVKGRFTISRDNAKNTVYLQMNSLKPEDTAVYYCAALGRRTRLYYWGQGTQVTVSS | high polyreactivity |
| QVQLVESGGGLVQAGGSLRLSCAASGRIFSDNAMGWYRQAPGKERELVATINYSGGSTYYADSVKGRFTISRDNAKNTVYLQMNSLKPEDTAVYYCATRIPHRINYYDYDYWGQGTQVTVSS | low polyreactivity |
| QVQLVESGGGLVQAGGSLRLSCAASGRIFSDYAMGWYRQAPGKERELVATITSGDSTNYADSVKGRFTISRDNAKNTVYLQMNSLKTEDTAVYYCNADRFADYDYWGQGTQVTVSS | low polyreactivity |
| QVQLVESGGGLVQAGGSLRLSCAASGRIFSENAMGWYRQAPGKERELVAAITGNGGDTYYADSVKGRFTISRDNAKNTVYLQMNSLKPEDTAVYYCAAETGGLGGDYWGQGTQVTVSS | low polyreactivity |
| QVQLVESGGGLVQAGGSLRLSCAASGRIFSEYAMGWYRQAPGKERELVAAISGTGGRTYYADSVKGRFTISRDNAKNTVYLQMNSLKPEDTAVYYCAARTGQGPLYNHWGQGTQVTVSS | high polyreactivity |
| QVQLVESGGGLVQAGGSLRLSCAASGRIFSFNAMGWYRPAPGKERELVATISWNGDSTYADSVKGRFTISRDNAKNTVYLQMNSLKPEDTAVYYCAVDVPPWDYDYWGQGTQVTVSS | low polyreactivity |
| QVQLVESGGGLVQAGGSLRLSCAASGRIFSFNAMGWYRQAPGKERELVAAISWSTGSTFYADSVKGRFTISRDNAKNTVYVQMNSLKPEDTAFYYCAREYYYRRGFFLRGYWGQGTQVTVSS | high polyreactivity |
| QVQLVESGGGLVQAGGSLRLSCAASGRIFSFNAMGWYRQAPGKERELVATISWNGDSTYADSVKGRFTISRDNAKNTVYLQMNSLKPEDTAVYYCAVDVPPWDYDYWGQGTQVTVSS | low polyreactivity |
| QVQLVESGGGLVQAGGSLRLSCAASGRIFSFYAMVWSRQAPGKERELVAAISSGGYTYYADSVKGRFTISRDNAKNTVYLQMNSLKPEDTAVYYCATGYRKLSSRYGYWGQGTQVTVSS | high polyreactivity |
| QVQLVESGGGLVQAGGSLRLSCAASGRIFSGYAMGWYRQAPGKERELVAAISQRGGSTTYADSVKGRFTISRDNAKNTVYLQMNSLKPEDTAVYYCAKRYTYPSGYDYWGQGTQVTVSS | low polyreactivity |

| Sequence | polyreactivity (PSR sort gate) |
| --- | --- |
| QVQLVESGGGLVQAGGSLRLSCAASGRIFSHNAMGWYRQAPGKERELVASIRSSSGRTYYADSVKGRITISRDNAKNTVYLQMNSLTPEDTAVYYCAARQYSSKPYLYGYNYWGQGTQVTVSS | high polyreactivity |
| QVQLVESGGGLVQAGGSLRLSCAASGRIFSKYAMGWYRQAPGKERELVAAITYSGGSTYYADSVKGRFTISRDNAKNTVYLQMNSLKPEDTAVYYCAAVHGTSYSKWFGYWGQGTQVTVSS | low polyreactivity |
| QVQLVESGGGLVQAGGSLRLSCAASGRIFSKYTMGWYIQAPGKEMELVAAISGSGTSTYYADSVKGRFTISRDNAKNTVYLQMNSLKPEDTAVYYCNAVKSWGHPGRYYWGQGTQVTVSS | high polyreactivity |
| QVQLVESGGGLVQAGGSLRLSCAASGRIFSLNTMGWYRQAPGKERELVATITKRGGNTYYADSVKGRFTISRDNAKNTVYLQMNSLKPEDTAFYYCAVPRSITYRYGYWGQGTQVTVSS | high polyreactivity |
| QVQLVESGGGLVQAGGSLRLSCAASGRIFSLYAMGWYRQAPGKERELVADITYRGGDSTYYADSVKGRFTISRDNAKNTVYLKMNSLKPEDTAVYYCAAGQPLYQRRHSSRTYYYWGQGTQVTVSS | high polyreactivity |
| QVQLVESGGGLVQAGGSLRLSCAASGRIFSLYAMGWYRQAPGKERELVAGITWRGGSTYYADSVKGRFTISRDNAKNTVYLQMNSMKPEDTAVYYCAARPWNWRDYDYWGQGTQVTVSS | high polyreactivity |
| QVQLVESGGGLVQAGGSLRLSCAASGRIFSLYAMGWYRQAPGNERELVAAISKRGGSTYYADSVKGRFTISRDNAKNTVYLHMNSLKPEDTAVYYCATQLPFRKPWHDYWGQGTQVTVSS | high polyreactivity |
| QVQLVESGGGLVQAGGSLRLSCAASGRIFSNYAMGWYRQAPGKERELVAAITSGGNTYYADSVKGRFTISRDNAKNTVYLQMNSLKPEDTAVYYCATVFSVQGWYFGMNYWGQGSQVTVSS | low polyreactivity |
| QVQLVESGGGLVQAGGSLRLSCAASGRIFSPSDMGWYRQAPGKERELVAAIRSDGGRTHYADSVKGRFTISRDNAKNTVYLQMNSLKPEDTAVYYCARDNGRTITTTDTYDYWGQGTQVTVSS | low polyreactivity |
| QVQLVESGGGLVQAGGSLRLSCAASGRIFSPSDMGWYRQAPGKERELVAAIRSDGGRTHYADSVKGRFTISRDNAKNTVYLQMNTLKPEDTAVYYCARDNGRTITTTDTYDYWRQGTQVTVSS | low polyreactivity |
| QVQLVESGGGLVQAGGSLRLSCAASGRIFSQNAMGWYRQAPGKERELVAVISRGGSTNYADSVKGRFTISRDNAKNTVYLQMNSLKPEDTAVYYCAADYAYIRSVWKWFIGDYWGQGTQVTVSS | low polyreactivity |
| QVQLVESGGGLVQAGGSLRLSCAASGRIFSQYAMGWYRQAPGKERELVAAISRRTGSTYYADSVKGRFTISRDNAKNTVYLQMNSLKPEDTAVYYCAAASKPWYYYWGQGTQVTVSS | high polyreactivity |
| QVQLVESGGGLVQAGGSLRLSCAASGRIFSQYAMGWYRQAPGKERELVAAISSRGGRTYYADSVKGRFTISRDNAKNTVYLQMNSLKPEDTAVYYCAAVIRSRYSYYEYDYWGQGTQVTVSS | high polyreactivity |
| QVQLVESGGGLVQAGGSLRLSCAASGRIFSRKTMGWYRQAPGKEREFVAAISQSGGRTYYADSVKGRFTISRDNAKNTVYLQMNSLKPEDTAVYYCNAQFARSSGFNYWGQGTQVTVSS | high polyreactivity |
| QVQLVESGGGLVQAGGSLRLSCAASGRIFSRNAMGWYIQAPGKERELVAAISRSGTSTYYADSVKGRFTISRDNAKYTVYLQMNSLKPEDTAVYYCAADYPAVISIRRYDYWGQGTQVTVSS | low polyreactivity |
| QVQLVESGGGLVQAGGSLRLSCAASGRIFSRNAMGWYRQAPGKERELVAAISRSGTSTYYADSVKGRFTISRDNAKNTVYLQMNSLKPEDTAVYYCAADYPAVISIRRYDYWGQGTQVTVSS | low polyreactivity |
| QVQLVESGGGLVQAGGSLRLSCAASGRIFSRNAMGWYRQAPGKERELVAAITSGGSTYYADSVKGRFTISRDNAKNTVYLQMNSLKPEDTAVYYCAKRLTYYSWYHLYDYWGQGTQVTVSS | high polyreactivity |
| QVQLVESGGGLVQAGGSLRLSCAASGRIFSRYAMGWYRQAPGKERELVAAITQSGTSTYYADSVKGRFTISRDNAKNTVYLQMNSLKPEDTAVYYCAAAKHSWRPSYYWGGYWGQGTQVTVSS | low polyreactivity |
| QVQLVESGGGLVQAGGSLRLSCAASGRIFSRYAMGWYRQAPGKERELVAAITRGGSTYADSVKGRFTISRDNAKNTVYLQMNSLKPEDTAVYYCATPIYSSYYRYSSGYGYDYWGQGTQVTVSS | high polyreactivity |
| QVQLVESGGGLVQAGGSLRLSCAASGRIFSRYAMGWYRQAPGKERELVATITRRGGSTSYADSVKGRFTISRDNAKNTVYLHMNSLKPEDTAVYYCAAQSFYGIYYGQQDYDYWGQGTQVTVSS | high polyreactivity |
| QVQLVESGGGLVQAGGSLRLSCAASGRIFSRYAMGWYTQAPGKERELVAAITQSGTSTYDADSVKGRFTISRDNAKNTVYLQMNSLKPEDTAVYFCNAYRQYRYDYWGQGTQVTVSS | low polyreactivity |
